The values below come from the supplement of paper PMC9170038.

In the data set the test system is MS2 coat protein. Description: apparent KD of MS2 coat protein; designed switch direction (-1 OFF switch, 1 ON switch): -1; higher = weaker reporter binding. The essentials:
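For each design, the apparent KD is the median over clusters of curves fitted to normalised cluster fluorescence. Clusters held RNA switches with common flanks, transcribed on Illumina chips by stalled E. coli RNA polymerase. These were titrated with SNAP-549-labelled MS2 coat protein, doubling from 0.7 or 1.5 nM to 3 µM, without input, with 200 uM small-molecule ligand, or with an oligonucleotide input.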

The mark [1] stands for this setting: input ligand: microRNA oligo, concentration not stated.
Setting [2] is: Eterna round: R95, input ligand: FMN 200 uM.
Where [3] appears, read: Eterna round: R95, input ligand: microRNA oligo, concentration not stated.
Where [4] appears, read: Eterna round: R95, input ligand: none.

As to “AGCGAAAAGGCAGGAUAUGAGAAUAGAUAGAGCUCAGAAGGGCCACAUGAGGAUCACCCAUGUAAAGUCUUGAGGCUGCGUGGU [Prohibition 12 - Jieux - Exclusion NG 1] (Eterna round: R96, puzzle: Exclusion NG 1)”, the “apparent KD of MS2 coat protein” value (input ligand: FMN 200 uM) was determined as 0.488 µM, the “apparent KD of MS2 coat protein” value under setting [1] is 0.0684 µM and the “apparent KD of MS2 coat protein” value (input ligand: none) is 0.0604 µM.
On to “UUGUUGUAUGUAGGAUAUGCAUGUUAUUAUUAUGCAGAAGGACAUGAGGAUCACCCAUGUAUAUUAUUAUUAUAUGUUAUAUAU [Title] (Eterna round: R96, puzzle: Exclusion NG 1)”, for which the “apparent KD of MS2 coat protein” value runs as follows: (input ligand: FMN 200 uM) 0.0222 µM; under setting [1], 0.0179 µM; (input ligand: none) 0.0239 µM.
In the same order, the values of “AUAAUUAGUUCAGGAUAUCAGCACGAUUAGUGCUGAGAAGGGAACAUGAGGAUCACCCAUGUGAUCAAUAUUAUAAUUUUAAUU [ENG1/12-B1] (Eterna round: R96, puzzle: Exclusion NG 1)” are 0.281 µM, 0.54 µM and 1.15 µM.
In the same order, the values of “CUUUUGUGAGGAUAUUAGUAGUAAAUAAAUAAAAUUAUUACUGAGAAGGCACAUGAGGAUCACCCAUGUUCCUC [salish99_ex4_r3_062] (Eterna round: R96, puzzle: Exclusion 4)” are 0.533 µM, 0.0329 µM and 0.0366 µM.
Regarding “AUAACAUGCUGGUGAUCAUACAUGAGGAUCACCCAUGUAACAAGCUUUUUGCUCGUCUUAUAAGAUCACCAGCAUGU [Stov1/9-A2] (Eterna round: R97, puzzle: Sensor, turn-off variant 1)”, the “apparent KD of MS2 coat protein” value was found to be 0.0148 µM (input ligand: FMN 200 uM) and 0.0154 µM (input ligand: none).
With “AAGACCUUUGUCAGGAUAUCAAGGCAAUUCGCCGGUGAGAAGGGACAUGAGGAUCACCCAUGUAAAGAAAAGAA [Rausedlave] (puzzle: Brourd's mod of Exclusion 4)”, the “apparent KD of MS2 coat protein” value runs as follows: under setting [2], 0.069 µM; under setting [3], 0.0201 µM; under setting [4], 0.0197 µM.
In the same order, the values of “CUGGUCCGAGGAUAUAUUAAGUGAAACAUGAGGAUCACCCAUGUUAUUUGAUGGAUGUAAAUAGAAGGCGGACUAG [JL-ex5-3.13] (puzzle: Exclusion 5)” are 0.0238 µM, 0.0331 µM and 0.0491 µM.
Turning to “AGUACUAACACGAAAGUGUUAGUACAAUAAGCUUGUGAUACAUGAGGAUCACCCAUGUCCUCAUAAGCUCGUCUUAU [salish99_TOv2_r3_045] (Eterna round: R96, puzzle: Sensor v3, turn-off variant 2)”, the “apparent KD of MS2 coat protein” value is, setting by setting: (input ligand: FMN 200 uM) 0.0237 µM; under setting [1], 0.714 µM; (input ligand: none) 0.0242 µM.
Take “UUGUUAUAUGUAGGAUAUGCAUAUUAUUAUUAUGCAGAAGGACAUGAGGAUCACCCAUGUAUAUUAUUGUUAUAUGUUAUAUAU [Title] (Eterna round: R96, puzzle: Exclusion NG 1)”: under setting [1], the “apparent KD of MS2 coat protein” value amounted to 0.0166 µM.
“AGGUCCUUCUGGAGACAUGAGGAUCACCCAUGUCGAGUCAGCGAGGAUAUCGGUUAAUAAUGUGAUGAGAAGGCGCAGACCGAU [Ex NG3 #53] (Eterna round: R96, puzzle: Exclusion NG 3)”: the “apparent KD of MS2 coat protein” value by setting is: (input ligand: FMN 200 uM) 0.0155 µM; under setting [1], 0.00855 µM; (input ligand: none) 0.0113 µM.
Take “CUUUUGUGAGGAUAUCAGUAGUAUAUAAAUAAAAUUACUACUGAGAAGGCACAUGAGGAUCACCCAUGUUCCUC [salish99_ex3_r3_076] (puzzle: Exclusion 4)”: under setting [3], the “apparent KD of MS2 coat protein” value turned out to be 0.0355 µM.
Regarding “AGCUGUGGCCGAGGAUAUCUAACUUCAAUAACCGAAAUAUAAUCGGACAUGAGGAUCACCCAUGUAGAGAAGGCGGUCUCAGCA [Eli eng2 - 082] (Eterna round: R96, puzzle: Exclusion NG 2)”, the “apparent KD of MS2 coat protein” value under setting [1] is 0.0107 µM.
With “GAGUCUCGAAAGGAUAUUUAGGUGUAUGCAGGUAGAGAAGGUUCGACAUGAGGAUCACCCAUGUAAUGGUUUCC [Eternabot (L2) Solution 25] (Eterna round: R97, puzzle: Exclusion 6)”, the “apparent KD of MS2 coat protein” value is 0.157 µM (input ligand: FMN 200 uM) and 0.084 µM (input ligand: none).
In the same order, the values of “GCUAUGGGAGGAUAUACAUGAGGAUCACCCAUGUGUAGAGCAUACGCGCGCAUUAACAGUAGAAGGCCCUGCGU [Eternabot (L1) Solution 23] (Eterna round: R97, puzzle: Exclusion 3)” are 0.0507 µM and 0.0494 µM.
As to “GAAAACGAAGAGGAUAUUUGAUAUCAAAGCUUCAAAGAAGGCUUCACAUGAGGAUCACCCAUGUGAUCUUCAAU [Mat - Exclusion 6 - JL Mod - D15] (Eterna round: R97, puzzle: Exclusion 6)”, the “apparent KD of MS2 coat protein” value is 0.212 µM (input ligand: FMN 200 uM) and 0.0245 µM (input ligand: none).
In the case of “GUUCGUGGGCAAGGAUAUCCUACGCUGUUCUGGUUCGUGUCUGUCACAUGAGGAUCACCCAUGUGGGAGAAGGUGCAUUUGGGU [Design 57] (Eterna round: R96, puzzle: Exclusion NG 2)”, the “apparent KD of MS2 coat protein” value was 0.0189 µM (input ligand: FMN 200 uM), 0.0151 µM under setting [1] and 0.0201 µM (input ligand: none).
Take “GAUCAACAUGAGGAUCACCCAUGUGAGGAUAUGAUACUAUGUACUUCGGUACAUAGUAUCAGAAGGCAUAUAAA [Ex1-3: 37] (puzzle: Exclusion 1)”: the “apparent KD of MS2 coat protein” value under setting [3] came to 0.0404 µM.
On the same count and under the same terms, with “UUCAUGUGAGGAUAUGUGUACUGUUUUUUGUUUAGAUGUACACAGAAGGCACAUGAGGAUCACCCAUGUAGUAC [Ex4 - 3 - 32] (puzzle: Exclusion 4)” the figure was 0.03 µM.
In the case of “UGCAAGCUUUUGAGAUCCUACAUGAGGAUCACCCAUGUGCUCGUCUUAUAACGUACUGUGACGAAAGUCACGGUACG [JL TOV1 3.97] (Eterna round: R97, puzzle: Sensor, turn-off variant 1)”, the “apparent KD of MS2 coat protein” value by setting is: (input ligand: FMN 200 uM) 0.184 µM; (input ligand: none) 0.222 µM.
Take “UUUAGUUCAGGAUAUGUAGAUUUAAACAUGAGGAUCACCCAUGUAGAUCCUGAUCCUGCUACAGAAGGGAACAUUU [Exclusion 5: 2:a mod1] (Eterna round: R97, puzzle: Exclusion 5)”: the “apparent KD of MS2 coat protein” value reads like this: (input ligand: FMN 200 uM) 0.0729 µM; (input ligand: none) 0.0243 µM.
In the same order, the values of “AGCACGCUUUUGCUCGAUCACAUGAGGAUCACCCAUGUGUGCUAAUAGGCCAAGGUGAAAGCCUCAGACAUAGUUUA [Eternabot (L1) Solution 1] (Eterna round: R97, puzzle: Sensor, turn-off variant 1)” are 0.153 µM and 0.173 µM.
On to “CAUCCACAUGAGGAUCACCCAUGUCAGGAUAUCGCGCGCGCGUUUUCGGUCUUUCGCGCGAGAAGGGACGACUG (puzzle: Exclusion 1)”, for which the “apparent KD of MS2 coat protein” value under setting [3] worked out at 0.0133 µM.
“CUUAGUUGGUAAGGAUAUCCUACAUUAUUCUGACCCGUGCAAGCUACAUGAGGAUCACCCAUGUGGGAGAAGGUGCGUUAAUGU [Design 6] (Eterna round: R96, puzzle: Exclusion NG 2)”: the “apparent KD of MS2 coat protein” value by setting is: (input ligand: FMN 200 uM) 0.0184 µM; under setting [1], 0.0129 µM; (input ligand: none) 0.0201 µM.
With “ACAAGCUCUGUGGGUGGUGACAUGAGGAUCACCCAUGUUUUGCUCGUCUUGUCGGCCGGCCGGCGCCCGGCCGGCCG [-39.6, -68.5, A 12%] (Eterna round: R97, puzzle: Sensor, turn-off variant 1)”, the “apparent KD of MS2 coat protein” value (input ligand: FMN 200 uM) came to 0.498 µM and the “apparent KD of MS2 coat protein” value (input ligand: none) is 0.727 µM.
Turning to “AGUACUAACACGAAAGUGUUAGUACUAUAAGCUUGUGUUACAUGAGGAUCACCCAUGUCCUCAUAAGCUCGUCUUAA [Mat - Sensor v3 - Turn-off var 2 - D63] (puzzle: Sensor v3, turn-off variant 2)”, the “apparent KD of MS2 coat protein” value by setting is: under setting [2], 0.0352 µM; under setting [3], 0.437 µM; under setting [4], 0.041 µM.
As for “CUCCAUGCCCAGGCUUAGAACAUGAGGAUCACCCAUGUAGAUCCAGAAAAUUUGCUCGUCAGGCAAUUUAUAGAUUG [Eternabot (L1) Solution 9] (Eterna round: R97, puzzle: Sensor, turn-off variant 1)”, the “apparent KD of MS2 coat protein” value stood at 0.5 µM (input ligand: FMN 200 uM) and 0.687 µM (input ligand: none).
As for “UGUUGUUACGCAGGAUAUGAGGAUCACCCAUAGUAGGAUAACGAAAGUGAAGGACUGAGGAUUACCCAGAAGGGCGGGUUAACA [pwkr exNG2 2xF5 2xFMN.3] (Eterna round: R96, puzzle: Exclusion NG 2)”, the “apparent KD of MS2 coat protein” value runs as follows: (input ligand: FMN 200 uM) 1.01 µM; under setting [1], 0.101 µM; (input ligand: none) 0.154 µM.
In the same order, the values of “GGUAGAGUGGUAGGAUAUCCGACUGAAACAGACGGAGAAGGACCACAGUCACUGGGUCCAAAUAUAAUAAACAAUAAAUCUACC [pwkr exNG1 F6.1] (Eterna round: R96, puzzle: Exclusion NG 1)” are 0.307 µM, 0.212 µM and 0.331 µM.
In the same order, the values of “GGAUCGAGUGUGAGGAUAUGCUGGUCCUAAGAUCAGCAGAAGGCACAUGAGGAUCACCCAUGUGAAAACGGUCC [Mat - Exclusion 4 - JL Mod - D71] (Eterna round: R96, puzzle: Brourd's mod of Exclusion 4)” are 0.183 µM, 0.0242 µM and 0.0293 µM.
For “UUUUAACAUGAGGAUCACCCAUGUGAGGAUAUCGAAAUUUAUAUUAAUAUUUUUAAUUCGAGAAGGCACAUUUU [JMF 69] (puzzle: Exclusion 1)”, the “apparent KD of MS2 coat protein” value under setting [3] was found to be 0.136 µM.
